Substitutions are numbered along the chain they refer to.

Here are results for one molecule from patent US20220332804A1 (CSL INNOVATION, published 2022).

What all share (assay): SPR, antibody captured, C2 as analyte;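 further: biacore at 37 °C, anti-C2 mAbs held by immobilised goat anti-human IgG, C2 alanine or serine mutants injected, double-referenced sensorgrams fitted to a 1:1 kinetic or steady-state model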
(In general: SPR reads the build-up and loss of mass on a sensor chip optically.)

The target of one test is T1, human C2 L279A (human, UniProt P06681 21-752).
T1 sequence: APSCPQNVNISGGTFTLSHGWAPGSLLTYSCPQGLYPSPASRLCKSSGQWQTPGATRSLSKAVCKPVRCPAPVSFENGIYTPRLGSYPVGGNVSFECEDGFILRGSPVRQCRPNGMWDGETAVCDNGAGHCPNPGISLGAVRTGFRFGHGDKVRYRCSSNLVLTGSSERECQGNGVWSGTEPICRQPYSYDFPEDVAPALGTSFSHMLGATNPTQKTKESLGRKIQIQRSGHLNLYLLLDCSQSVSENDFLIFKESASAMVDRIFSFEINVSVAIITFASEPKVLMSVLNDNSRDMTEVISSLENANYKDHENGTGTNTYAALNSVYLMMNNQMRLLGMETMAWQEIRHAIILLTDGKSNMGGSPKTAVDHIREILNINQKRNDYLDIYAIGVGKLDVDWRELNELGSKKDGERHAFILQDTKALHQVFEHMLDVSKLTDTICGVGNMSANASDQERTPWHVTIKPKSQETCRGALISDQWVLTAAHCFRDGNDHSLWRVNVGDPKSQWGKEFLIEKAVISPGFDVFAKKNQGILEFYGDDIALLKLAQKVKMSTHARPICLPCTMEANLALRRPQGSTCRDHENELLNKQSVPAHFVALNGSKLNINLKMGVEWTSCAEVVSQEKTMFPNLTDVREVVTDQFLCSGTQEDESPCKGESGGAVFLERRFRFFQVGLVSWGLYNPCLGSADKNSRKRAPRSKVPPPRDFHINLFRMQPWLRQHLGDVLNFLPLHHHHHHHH

The next test has as its target T2, human C2 H435A (human, UniProt P06681 21-752).
T2 sequence: T1 sequence with A259L, H415A

The next test deals with T3, human C2 R493A (human, UniProt P06681 21-752).
T3 sequence: T1 sequence with A259L, R473A

For a further test, the target named is T4, human C2 N471A (human, UniProt P06681 21-752).
T4 sequence: T1 sequence with A259L, N451A

B1: RF16-242 (antibody, human IgG4 S228P, lambda, V domains shown)
VH: EVQLLQSGAEVKKPGESLKISCKGSGYSFTSYWIGWVRQMPGKGLEWMGIIYPGDSDTRYSPSFQGQVTISADKSISTAYLQWSSLKASDTAMYYCARRGHYGDYFDYWGQGTLVTVSS
VL: SYELTQPPSVSVSPGQTARITCSGDALPKKYAYWYHQKSGQAPVLVIYEDRRRPSEIPERFSGSSSGTMATLTITGAQVEDEGVYFCYSRDRAGNQRVFGGGTQLTVLG
notes: pH-dependent anti-C2 antibody from a phage display library
As to B1, the Kd (usually a measure of binding affinity in units of concentration) in the test with human C2 L279A amounted to 49.2 nM; in the test with human C2 H435A it was 62.5 nM; in the test with human C2 R493A, 7.2 nM; with human C2 N471A, 9.2 nM.
